Laboratory results published in publication PMC12641570, “Surface‐modified protein crowders influence mutant huntingtin exon 1 aggregation via crowding effects, crowder association, and crowder solution stability” (Protein Science : A Publication of the Protein Society, 2025).

Molecular target: T1, bovine serum albumin cationized by reaction with ethylenediamine, net surface charge +78e (BSA +78e) (bovine, UniProt P02769 25-607, reacted with ethylenediamine; net surface charge +78e (±3e))
T1 construct: bovine serum albumin (BSA), 66 kDa protein; Chemically surface-modified; DLS radius is 16 nm, from which the authors infer oligomers; also called positive BSA (+78e); cationized BSA; source: BSA modified by reaction with ethylenediamine (published procedure); chemicals bought: Sigma‐Aldrich unless mentioned otherwise
Test: MST; NanoTemper Monolith; about 10 μM mHttex1‐VC (target, mCherry fluorescence read) with different concentrations of BSA (ligand); within 1 h after cleaving MBP; apparent
Conditions: both partners purified

B1: mutant huntingtin exon 1 (45Q) fused to mVenus/mCherry (mHttex1‐VC), after cleavage of MBP (domain or fragment)
chain: MATLEKLMKAFESLKSFQQQQQQQQQQQQQQQQQQQQQQQQQQQQQQQQQQQQQQQQQQQQQPPPPPPPPPPPQLPQPPPQAQPLLPQPQPPPPPPPPPPGPAVAEEPLHRP
  Kd: > 1000 µM
